# T1: MinD-D152A (E. coli, UniProt P0AEZ3 1-270, D152A)
# T1 sequence (looked up): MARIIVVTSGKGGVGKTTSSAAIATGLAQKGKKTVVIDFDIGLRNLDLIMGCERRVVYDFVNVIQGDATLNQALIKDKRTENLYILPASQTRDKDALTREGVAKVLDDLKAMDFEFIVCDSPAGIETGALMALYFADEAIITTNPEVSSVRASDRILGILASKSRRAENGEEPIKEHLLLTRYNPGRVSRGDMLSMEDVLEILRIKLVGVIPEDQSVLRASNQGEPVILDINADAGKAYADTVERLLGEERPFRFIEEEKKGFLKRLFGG
# T2: MinD (E. coli, UniProt P0AEZ3 1-270)
# T2 sequence (looked up): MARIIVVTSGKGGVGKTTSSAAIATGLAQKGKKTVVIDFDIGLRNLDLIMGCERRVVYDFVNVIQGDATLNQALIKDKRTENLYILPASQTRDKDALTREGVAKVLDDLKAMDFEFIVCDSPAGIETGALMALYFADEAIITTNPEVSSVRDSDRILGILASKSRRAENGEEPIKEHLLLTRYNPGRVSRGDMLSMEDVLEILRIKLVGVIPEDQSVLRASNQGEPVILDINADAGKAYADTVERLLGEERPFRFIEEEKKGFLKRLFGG
# What was measured:
# MinD-D152A = target: T1, MinD-D152A; experiment: two-hybrid
# MinD = target: T2, MinD; experiment: two-hybrid
# SEC = target: the molecule itself; experiment: SEC
percent of the MinE-MinD β-galactosidase activity (MinD-D152A) [%],β-galactosidase activity (MinD-D152A),percent of the MinE-MinD β-galactosidase activity (MinD) [%],β-galactosidase activity (MinD),Binder,stoichiometry N (SEC)
8,28 units of β-galactosidase activity,120,398 units of β-galactosidase activity,"MALLDFFLSRKKNTANIAKERLQIIVAERRR (domain or fragment, E. coli, UniProt P0A734 1-31, looked up) [MinE^1-31]",
,,,,"MinDΔ10-D40A (domain or fragment, E. coli, UniProt P0AEZ3 1-260, looked up) MARIIVVTSGKGGVGKTTSSAAIATGLAQKGKKTVVIDFAIGLRNLDLIMGCERRVVYDFVNVIQGDATLNQALIKDKRTENLYILPASQTRDKDALTREGVAKVLDDLKAMDFEFIVCDSPAGIETGALMALYFADEAIITTNPEVSSVRDSDRILGILASKSRRAENGEEPIKEHLLLTRYNPGRVSRGDMLSMEDVLEILRIKLVGVIPEDQSVLRASNQGEPVILDINADAGKAYADTVERLLGEERPFRFIEEEK",2
44,145 units of β-galactosidase activity,100,,"MinE (full length) (natural protein, E. coli, UniProt P0A734 1-88, looked up) MALLDFFLSRKKNTANIAKERLQIIVAERRRSDAEPHYLPQLRKDILEVICKYVQIDPEMVTVQLEQKDGDISILELNVTLPEAEELK",

# Source: PMC3077903 (Molecular microbiology, 2011)
